Reference: patent US20250171556A1 (VIRTUOSO BINCO, published 2025)
Read-outs that look alike come from different tables or passages of the source.

How the values were obtained:
[1] = target: T1, CD47 on human cells (human, UniProt Q08722 19-323); assay: flow cytometry, blocking of SIRPα-mIgG2a fusion protein (0.2 µg/mL) binding to CD47 on Raji cells (EpCAM-/CD47+), inhibition (%)
T1 construct: whole, on cells; Endogenous CD47 on cells; also called CD47 on Raji cells; CD47 on HCT-15 cells
Description: (§1) Tumor cells were harvested, centrifuged, and then resuspended in FACS buffer (PBS plus 2% FBS) at a concentration of 2×10⁶ cells/mL. 100 μL of the cell suspension was dispensed into each well of a 96-well plate. The plate was centrifuged for 5 min and 300×g, and the supernatants were discarded. […] Then, the plates were washed twice with FACS buffer and incubated for 1 hour at 4° C. in the dark with 100 μL of Alexa Fluor 488 donkey anti-Mouse IgG (H+L) secondary antibody (Invitrogen, Cat #A21202, 1:1000). After washing twice with FACS buffer, the plates were resuspended with 300 μL FACS buffer and analyzed by flow cytometry.

[2] = target: T2, recombinant human CD47 (human, UniProt Q08722 19-139, limits assumed); assay: ELISA, plate coated with recombinant human CD47, detection with peroxidase anti-human IgG (Fab specific), OD450
T2 construct: Recombinant protein for ELISA coating; also called human CD47 recombinant protein
Description: (§2) A 96-well plate was coated overnight at 4° C. with 1 μg/mL recombinant human CD47 or human EGFR. After washing 3 times, the plate was blocked with 300 μL 1% BSA in PBST at 37° C. for 1 hour. Serially diluted antibodies were added and incubated at 37° C. for 1 hour. The plate was then washed 4 times with PBST and incubated with 1:5000 diluted peroxidase labeled goat anti-human IgG (Fab specific) secondary antibody (Sigma, Cat #A0293) for 1 hour at 37° C. The plate was washed again 4 times with PBST, incubated with 3,3′,5,5′-tetramethylbenzidine (TMB) substrate for 15 min at room temperature, terminated with 1N HCl, and then read at 450 nm.

[3] = target: T3, recombinant human EpCAM (human, UniProt P16422 24-265); assay: ELISA, plate coated with recombinant human EpCAM, detection with peroxidase anti-human IgG (Fab specific), OD450
T3 construct: Recombinant protein for ELISA coating; also called human EpCAM recombinant protein
T3 sequence (looked up): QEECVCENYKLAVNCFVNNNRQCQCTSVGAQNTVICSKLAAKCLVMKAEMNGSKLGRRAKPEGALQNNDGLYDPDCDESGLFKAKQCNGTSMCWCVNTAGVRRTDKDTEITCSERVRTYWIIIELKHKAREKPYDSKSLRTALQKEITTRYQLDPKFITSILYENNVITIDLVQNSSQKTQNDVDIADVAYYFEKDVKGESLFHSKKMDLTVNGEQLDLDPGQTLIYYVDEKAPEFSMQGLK
Description: as §2, with “μg/ml” for “μg/mL”, “EpCAM.” for “EGFR.”, “μl” for “μL”

[4] = target: T1, CD47 on human cells; assay: flow cytometry competition with SIRPα-mIgG2a (0.2 µg/mL) on EpCAM-negative Raji cells; EpCAM negative Raji cells; SIRPα-mIgG2a 0.2 µg/mL
Description: as §1

[5] = target: T1, CD47 on human cells; assay: flow cytometry competition with SIRPα-mIgG2a (1 µg/mL) on EpCAM-high HCT-15 cells; EpCAM high HCT-15 cells; SIRPα-mIgG2a 1 µg/mL
Description: as §1

[6] = target: T1, CD47 on human cells; assay: flow cytometry, blocking of SIRPα-mIgG2a fusion protein (1 µg/mL) binding to CD47 on HCT-15 cells (EpCAM+++/CD47+), inhibition (%)
Description: as §1

[7] = target: T1, CD47 on human cells; assay: flow cytometry competition with SIRPα-mIgG2a; IC50 on HCT-15 cells against IC50 on Raji cells
Description: as §1

[8] = target: T1, CD47 on human cells; assay: flow cytometry on a mixture of HCT-15 tumor cells and a 20-fold excess of RBCs, signal on the HCT-15 cells (EpCAM+/CD47+, so both arms of the bispecific can take part), % of selective binding
Description: (§4) Binding of antibodies on mixed tumor cells and RBCs was performed by FACS. In brief, antibodies were incubated with a mixture of HCT-15 tumor cells and RBCs (in 20-fold excess of tumor) for 1 h at 4° C. The binding of antibodies on HCT-15 cells and RBCs were identified by using different FACS markers and detected by flow cytometry.

[9] = target: T2, recombinant human CD47; assay: ELISA, plate coated with recombinant human CD47, detection with peroxidase anti-human IgG (Fab specific), OD450; remark: listed apart in the source
Description: as §2, with “μg/ml” for “μg/mL”, “EpCAM.” for “EGFR.”, “μl” for “μL”

[10] = target: T1, CD47 on human cells; assay: flow cytometry on a mixture of HCT-15 cells and RBCs; EC50 on HCT-15 cells against EC50 on RBCs
Description: as §4

[11] = target: T3, recombinant human EpCAM; assay: ELISA, plate coated with recombinant human EpCAM, detection with peroxidase anti-human IgG (Fab specific), OD450; remark: listed apart in the source
Description: as §2, with “μg/ml” for “μg/mL”, “EpCAM.” for “EGFR.”, “μl” for “μL”
(§3) ELISA assay was performed as described in EXAMPLE 3.

[12] = target: T2, recombinant human CD47; assay: ELISA, plate coated with recombinant human CD47, detection with peroxidase anti-human IgG (Fab specific), OD450; remark: listed apart in the source
Description: as §2, with “μg/ml” for “μg/mL”, “EpCAM.” for “EGFR.”, “μl” for “μL”
as §3

B1: VIR47.V8 (antibody, human IgG1, lambda, V domains shown)
VH: EVQLLESGGGLVQPGGSLRLSCAASGFTFSNFAMSWVRQAPGKGLEWVSTISASGGRTFYADSVKGRFTISRDNSKNTLYLQMNSLRAEDTAVYYCAKEGSFGEGVDPWGQGTLVTVSS
VL: SYELTQPPSVSVSPGQTARITCSGDALPKKYAYWYQQKSGQAPVLVIYEDNKRPSGIPERFSGSSSGTMATLTISGAQVEDEADYYCYSTDISGNHWVFGGGTKLTVLG
notes: Bivalent monospecific parental anti-CD47 antibody; also called parental CD47 antibody VIR47.V8; anti-CD47 bivalent antibody (VIR47.V8)
**Q.** For B1, which “IC50 (read off the curve)” value [1] is on record?
**A.** ~8 nM

**Q.** And the “EC50 (read off the curve)” value [2]?
**A.** ~0.05 nM

B2: CD47×EpCAM_v5 (bispecific antibody, human IgG1, lambda)
heavy: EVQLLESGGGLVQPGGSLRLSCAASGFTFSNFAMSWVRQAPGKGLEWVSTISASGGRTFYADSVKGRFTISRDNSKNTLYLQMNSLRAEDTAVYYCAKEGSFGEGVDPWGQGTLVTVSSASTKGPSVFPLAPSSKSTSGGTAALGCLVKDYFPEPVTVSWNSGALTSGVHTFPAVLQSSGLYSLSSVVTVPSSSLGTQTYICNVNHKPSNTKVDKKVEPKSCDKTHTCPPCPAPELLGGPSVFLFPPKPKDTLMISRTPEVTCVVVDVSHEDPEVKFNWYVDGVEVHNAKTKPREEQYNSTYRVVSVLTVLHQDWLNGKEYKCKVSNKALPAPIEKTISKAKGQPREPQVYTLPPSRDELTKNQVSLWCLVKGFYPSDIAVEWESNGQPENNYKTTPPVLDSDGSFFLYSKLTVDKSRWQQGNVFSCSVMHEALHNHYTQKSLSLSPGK
light: SYELTQPPSVSVSPGQTARITCSGDALPKKYAYWYQQKSGQAPVLVIYEDNKRPSGIPERFSGSSSGTMATLTISGAQVEDEADYYCYSTDISGNHWVFGGGTKLTVLGQPKAAPSVTLFPPSSEELQANKATLVCLISDFYPGAVTVAWKADSSPVKAGVETTTPSKQSNNKYAASSYLSLTPEQWKSHRSYSCQVTHEGSTVEKTVAPTECS
scFv: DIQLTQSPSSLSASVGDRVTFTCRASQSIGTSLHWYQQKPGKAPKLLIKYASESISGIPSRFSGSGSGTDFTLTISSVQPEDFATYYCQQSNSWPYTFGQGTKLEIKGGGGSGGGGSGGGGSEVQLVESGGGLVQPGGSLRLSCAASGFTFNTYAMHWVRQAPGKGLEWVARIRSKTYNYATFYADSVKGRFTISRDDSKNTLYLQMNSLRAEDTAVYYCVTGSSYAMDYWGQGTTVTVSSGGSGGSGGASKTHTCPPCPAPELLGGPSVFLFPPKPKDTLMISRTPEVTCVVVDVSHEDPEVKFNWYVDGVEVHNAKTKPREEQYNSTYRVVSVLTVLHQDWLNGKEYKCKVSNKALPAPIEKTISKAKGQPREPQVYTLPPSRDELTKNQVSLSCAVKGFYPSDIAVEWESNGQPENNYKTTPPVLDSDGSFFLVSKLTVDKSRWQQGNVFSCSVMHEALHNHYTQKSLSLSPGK
notes: Three-chain knob-into-hole bispecific: anti-CD47 Fab arm (VIR47.V8) and anti-EpCAM scFv arm (Mab002-11), human IgG1 backbone; also called anti-CD47×EpCAM bispecific antibody
**Q.** Which results are given for B2?
**A.** EC50 (read off the curve) [3]: ~0.8 nM; IC50 [4]: > 100 nM; IC50 [5]: < 1 nM; IC50 (read off the curve) [6]: ~0.3 nM; fold difference of IC50 (HCT-15 cells against Raji cells) [7]: ~500 fold; EC50 (read off the curve) [8]: ~0.09 nM; EC50 (read off the curve) [9]: ~1 nM; fold difference of binding EC50 (tumor cells against RBCs) [10]: > 200 fold

B3: CD47×EpCAM_v10 (bispecific antibody, human IgG1, lambda)
heavy: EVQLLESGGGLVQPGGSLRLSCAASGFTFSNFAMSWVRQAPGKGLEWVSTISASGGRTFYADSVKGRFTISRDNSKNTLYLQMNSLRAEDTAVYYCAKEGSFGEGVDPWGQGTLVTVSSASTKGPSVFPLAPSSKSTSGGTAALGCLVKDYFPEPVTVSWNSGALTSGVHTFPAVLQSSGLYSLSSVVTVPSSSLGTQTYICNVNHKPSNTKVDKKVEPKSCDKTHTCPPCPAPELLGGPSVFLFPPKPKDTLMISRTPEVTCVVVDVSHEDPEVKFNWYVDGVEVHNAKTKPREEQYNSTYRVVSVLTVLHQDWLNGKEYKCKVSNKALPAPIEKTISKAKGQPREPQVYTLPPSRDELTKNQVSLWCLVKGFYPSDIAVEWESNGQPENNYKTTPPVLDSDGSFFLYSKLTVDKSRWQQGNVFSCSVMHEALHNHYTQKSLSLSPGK
light: SYELTQPPSVSVSPGQTARITCSGDALPKKYAYWYQQKSGQAPVLVIYEDNKRPSGIPERFSGSSSGTMATLTISGAQVEDEADYYCYSTDISGNHWVFGGGTKLTVLGQPKAAPSVTLFPPSSEELQANKATLVCLISDFYPGAVTVAWKADSSPVKAGVETTTPSKQSNNKYAASSYLSLTPEQWKSHRSYSCQVTHEGSTVEKTVAPTECS
scFv: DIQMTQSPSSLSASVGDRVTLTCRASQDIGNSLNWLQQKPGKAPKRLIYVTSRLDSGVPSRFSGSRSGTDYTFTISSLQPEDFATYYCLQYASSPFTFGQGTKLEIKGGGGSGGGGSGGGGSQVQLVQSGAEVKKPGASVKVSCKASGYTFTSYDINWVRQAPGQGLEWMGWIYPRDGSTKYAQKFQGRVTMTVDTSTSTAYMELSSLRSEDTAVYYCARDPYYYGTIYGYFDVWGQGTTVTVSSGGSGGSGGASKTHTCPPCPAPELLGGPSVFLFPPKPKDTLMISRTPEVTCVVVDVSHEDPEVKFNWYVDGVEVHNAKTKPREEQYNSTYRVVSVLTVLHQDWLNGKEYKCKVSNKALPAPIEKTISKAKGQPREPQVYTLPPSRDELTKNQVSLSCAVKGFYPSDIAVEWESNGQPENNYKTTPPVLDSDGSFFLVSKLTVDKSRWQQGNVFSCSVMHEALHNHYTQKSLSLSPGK
notes: Three-chain knob-into-hole bispecific: anti-CD47 Fab arm and anti-EpCAM scFv arm (Mab001-12)
**Q.** How did the “EC50 (read off the curve)” value [11] turn out when B3 was run?
**A.** ~9 nM

**Q.** And the “EC50 (read off the curve)” value [12]?
**A.** ~1 nM

B4: CD47×EpCAM_v11 (bispecific antibody, human IgG1, lambda)
heavy: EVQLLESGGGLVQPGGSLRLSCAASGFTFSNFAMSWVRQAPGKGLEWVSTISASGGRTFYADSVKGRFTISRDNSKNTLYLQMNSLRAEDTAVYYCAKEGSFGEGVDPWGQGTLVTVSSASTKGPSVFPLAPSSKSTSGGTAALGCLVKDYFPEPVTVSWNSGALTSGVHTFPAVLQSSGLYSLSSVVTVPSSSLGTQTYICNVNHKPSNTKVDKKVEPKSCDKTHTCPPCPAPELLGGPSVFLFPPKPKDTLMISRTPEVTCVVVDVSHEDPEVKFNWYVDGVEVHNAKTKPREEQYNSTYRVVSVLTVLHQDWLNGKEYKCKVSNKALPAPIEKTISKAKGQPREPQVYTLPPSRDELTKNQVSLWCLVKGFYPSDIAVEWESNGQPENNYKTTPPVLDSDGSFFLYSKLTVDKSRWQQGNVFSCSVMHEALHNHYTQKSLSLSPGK
light: SYELTQPPSVSVSPGQTARITCSGDALPKKYAYWYQQKSGQAPVLVIYEDNKRPSGIPERFSGSSSGTMATLTISGAQVEDEADYYCYSTDISGNHWVFGGGTKLTVLGQPKAAPSVTLFPPSSEELQANKATLVCLISDFYPGAVTVAWKADSSPVKAGVETTTPSKQSNNKYAASSYLSLTPEQWKSHRSYSCQVTHEGSTVEKTVAPTECS
scFv: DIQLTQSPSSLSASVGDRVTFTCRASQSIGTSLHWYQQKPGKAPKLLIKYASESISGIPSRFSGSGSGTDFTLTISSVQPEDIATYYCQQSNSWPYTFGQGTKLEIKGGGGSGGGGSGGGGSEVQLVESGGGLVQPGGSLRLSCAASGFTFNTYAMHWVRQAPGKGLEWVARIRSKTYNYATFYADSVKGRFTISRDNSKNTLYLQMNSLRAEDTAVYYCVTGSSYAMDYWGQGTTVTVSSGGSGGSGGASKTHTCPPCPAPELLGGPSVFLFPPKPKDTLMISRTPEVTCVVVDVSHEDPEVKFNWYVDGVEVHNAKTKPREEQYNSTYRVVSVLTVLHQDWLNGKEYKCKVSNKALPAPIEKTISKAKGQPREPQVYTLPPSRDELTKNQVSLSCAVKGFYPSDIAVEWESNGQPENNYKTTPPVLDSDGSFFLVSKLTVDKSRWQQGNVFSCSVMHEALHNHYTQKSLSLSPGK
notes: Three-chain knob-into-hole bispecific: anti-CD47 Fab arm and anti-EpCAM scFv arm (Mab002-8)
**Q.** For B4, which “EC50 (read off the curve)” value [11] is on record?
**A.** ~0.1 nM

**Q.** What about the “EC50 (read off the curve)” value [12] of the same binder?
**A.** ~0.4 nM

B5: CD47×EpCAM_v9 (bispecific antibody, human IgG1, kappa)
heavy: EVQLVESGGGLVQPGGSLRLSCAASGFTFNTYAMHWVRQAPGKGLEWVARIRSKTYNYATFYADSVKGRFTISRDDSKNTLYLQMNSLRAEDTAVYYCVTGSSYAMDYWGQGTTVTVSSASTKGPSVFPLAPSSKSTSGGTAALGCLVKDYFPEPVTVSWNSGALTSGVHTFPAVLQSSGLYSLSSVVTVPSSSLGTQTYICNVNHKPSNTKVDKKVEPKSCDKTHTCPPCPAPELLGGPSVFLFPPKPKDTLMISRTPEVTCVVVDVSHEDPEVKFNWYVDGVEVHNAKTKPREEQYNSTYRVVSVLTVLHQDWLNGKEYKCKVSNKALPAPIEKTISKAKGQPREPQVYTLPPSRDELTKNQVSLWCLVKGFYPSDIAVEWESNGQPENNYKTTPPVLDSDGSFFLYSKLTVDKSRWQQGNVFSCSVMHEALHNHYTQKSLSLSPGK
light: DIQLTQSPSSLSASVGDRVTFTCRASQSIGTSLHWYQQKPGKAPKLLIKYASESISGIPSRFSGSGSGTDFTLTISSVQPEDFATYYCQQSNSWPYTFGQGTKLEIKRTVAAPSVFIFPPSDEQLKSGTASVVCLLNNFYPREAKVQWKVDNALQSGNSQESVTEQDSKDSTYSLSSTLTLSKADYEKHKVYACEVTHQGLSSPVTKSFNRGEC
scFv: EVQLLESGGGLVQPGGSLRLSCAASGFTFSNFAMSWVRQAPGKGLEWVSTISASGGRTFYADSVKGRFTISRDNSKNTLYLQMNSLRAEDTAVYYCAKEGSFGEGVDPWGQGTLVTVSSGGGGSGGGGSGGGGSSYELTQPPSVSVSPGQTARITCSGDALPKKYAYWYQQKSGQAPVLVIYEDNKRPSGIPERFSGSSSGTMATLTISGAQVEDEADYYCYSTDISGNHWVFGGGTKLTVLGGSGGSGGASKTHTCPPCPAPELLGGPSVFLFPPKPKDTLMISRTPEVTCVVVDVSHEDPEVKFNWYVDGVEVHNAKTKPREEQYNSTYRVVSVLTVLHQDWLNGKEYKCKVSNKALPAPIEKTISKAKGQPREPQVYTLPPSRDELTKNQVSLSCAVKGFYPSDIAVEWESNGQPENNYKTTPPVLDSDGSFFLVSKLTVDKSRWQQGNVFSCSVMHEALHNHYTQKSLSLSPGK
notes: Three-chain knob-into-hole bispecific: anti-EpCAM Fab arm and anti-CD47 scFv arm
**Q.** How did the “EC50 (read off the curve)” value [11] turn out when B5 was run?
**A.** ~0.1 nM

**Q.** What about the “EC50 (read off the curve)” value [12] of the same binder?
**A.** ~7 nM
